From publication PMC6996922

Columns and labels:
Chk1 [1] = target: Chk1 (UniProt O14757); experiment: biotin-peptide streptavidin pull-down from lysate; settings: reference: NC peptide with pT916 and pS945, untreated; sites T916,S945
Chk1 [2] = target: Chk1 (UniProt O14757); experiment: biotin-peptide streptavidin pull-down, purified Chk1; settings: reference: NC peptide with pT916 and pS945, untreated; sites T916,S945

Claspin NC peptide, 901-955 (from UniProt Q9HAW4) NC peptide pretreated with λ-phosphatase
binding against the reference (Chk1 [1]): lost
binding against the reference (Chk1 [2]): lost
